Assay: soluble on expression in E. coli; label from the status in PepcDB or PDB records

Question: With “MIAVSFKCRCQILRRLTKDESPYTKSASQTKPPDGALAVRRQSIPEEFKGSTVVELMKKEGTTLGLTVSGGIDKDGKPRVSNLRQGGIAARSDQLDVGDYIKAVNGINLAKFRHDEIISLLKNVGERVVLEVEYELPPVSVQGSSVIFRTVEVTLHKEGNTFGFVIRGGAHDDRNKSRPVVITCVRPGGPADREGTIKPGDRLLSVDGIRLLGTTHAEAMSILKQCGQEAALLIEYDVSVMDSVATASGPLLVEVAKTPGASLGVALTTSMCCNKLVIVIDKIKSASIADRCGALHVGDHILSIDGTSMEYCTLAEATQFLANTTDQVKLEILPHHQTRLALKGPDHAALVSSSFSPTSMSAYSLSSLNMGTLPRSLYSTSPRGTMMRRRLKKKDFKSSLSLASSTVGLAGQVVHTETTEVVLTADPVTGFGIQLQGSVFATETLSSPPLISYIEADSPAERCGVLQIGDRVMAINGIPTEDSTFEEASLLLRDSSITSKVTLEIEFDVAESVIPSSGTFHVKLPKKHNVELGITISSPSSRKPGDPLVISDIKKGSVAHRTGTLELGDKLLAIDNIRLDNCSMEDAVQILQQCEDLVKLKIRKDEDNSDEQESSGAIIYTVELKRYGGPLGITISGTEEPFDPIIISSLTKGGLAERTGAIHIGDRILAINSSSLKGKPLSEAIHLLQMAGETVTLKIKKQTDAQSASSPKKFPISSHLSDLGDVEEDSSPAQKPGKLSDMYPSTVPSVDSAVDSWDGSAIDTSYGTEGTSFQASGYNFNTYDWRSPKQRGSLSPVTKPRSQTYPDVGLSYEDWDRSTASGFAGAADSAETEQEENFWSQALEDLETCGQSGILRELEATIMSGSTMSLNHEAPTPRSQLGRQASFQERSSSRPHYSQTTRSNTLPSDVGRKSVTLRKM” as the sequence, how does the “soluble on expression in E. coli” value read?
Answer: soluble

Question: With “TDESRGKARAAGVESAVLLENKSRLLPLAKEAKIALVGPLATSPDILGGWNVYGEEKDGINVETGLREVFETVEVVSTEYTELSEEDKVAVKAAVQNMDVVVLALGEKNEWGGEAGSLATIRLPEAQYQLAKFVQTLGKPVVITLFNGRPLEVKELAESSDALLELWFPGTEAGRVTADLLSGASNPSGKLSMSFPQTTGQIPVYYNHLRTGRPQTPENKGERYVSHYLDIPNEPFYPFGYGKSYSEF” as the sequence, how does the “soluble on expression in E. coli” value read?
Answer: not soluble

Question: For “MTITPATHAISINPATGEQLSVLPWAGADDIENALQLAAAGFRDWRETNIDYRAEKLRDIGKALRARSEEMAQMITREMGKPINQARAEVAKSANLCDWYAEHGPAMLKAEPTLVENQQAVIEYRPLGTILAIMPWNFPLWQVMRGAVPIILAGNGYLLKHAPNVMGCAQLIAQVFKDAGIPQGVYGWLNADNDGVSQMIKDSRIAAVTVTGSVRAGAAIGAQAGAALKKCVLELGGSDPFIVLNDADLELAVKAAVAGRYQNTGQVCAAAKRFIIEEGIASAFTERFVAAAAALKMGDPRDEENALGPMARFDLRDELHHQVEKTLAQGARLLLGGEKMAGAGNYYPPTVLANVTPEMTAFREEMFGPVAAITIAKDAEHALELANDSEFGLSATIFTTDETQARQMAARLECGGVFINGYCASDARVAFGGVKKSGFGRELSHFGLHEFCNIQTVWKDRI”, which “soluble on expression in E. coli” value is on record?
Answer: soluble

Question: With “GPHMADLFGDDIEEIPDTDFDFEGNLALFDKAAVFEEIDTYERR” as the sequence, how does the “soluble on expression in E. coli” value read?
Answer: soluble

Question: Which “soluble on expression in E. coli” value does the source give for “MVMSIEASCHCGETVFEVTEAPSSVTRCTCSLCAKRGSLWAYYKPAQFRLLSPPENVTTYLWGSRTVKHHFCASCGCGTYSESPDWSTGKPDFDNPKVAVNARLFDDFDLDAVPVNMIDGKNLWLEHHHHHH” here?
Answer: soluble

Question: Which “soluble on expression in E. coli” value does the source give for “MTVLEAVLEIQAITGSRLLSMVPGPARPPGSCWDPTQCTRTWLLSHTPRRRWISGLPRASCRLGEEPPPLPYCDQAYGEELSIRHRETWAWLSRTDTAWPGAPGVKQARILGELLLV” here?
Answer: not soluble

Question: With “MSEEKKDSSRPPVRNYLKQIDDFFEQTPLRNVIADLNHFFQKGNRLLTFPVDLYEVGEELVVTAELPGIQKEQIQIEIQSEYLKVSVKEEILEEEEQTSHNYYRRERSISEASRLIKLPYSINKKAAKASYQNGVLEIRAPKLPQQHDILSID” as the sequence, how does the “soluble on expression in E. coli” value read?
Answer: not soluble

Question: For “RKIFTNKCERAGCRQREMMKLTCERCSRNFCIKHRHPLDHDCSGEGHPTS”, which “soluble on expression in E. coli” value is on record?
Answer: soluble

Question: With “MGSDKIHHHHHHMLVEHDISDVRVGMYIIEITVPKNKFRLAKQGWLDNERIIDALKSKSVEKVLIDASKTRIVADQNATTPSPSVATPSVTTKKGTKTSSESVKPKAASVRTKYQFNQEVIKAKQVFAESKAIQAKLFHNAQRGLPLEMESVCKITSESTDLIFNNPNALACVLNIRNKDEYLLEHSVSVSILMTMFALYLKIDRDIVNQLAIGAFLHDVGKIMVPDNILNKPGKLTDDEFFVMKSHARHSVSIMRKTPGISAISMEVAGQHHEKLNGKGYPLGLKGDKISLYGRMSSICDIFDALTATRCYKQGYPQVKCFGILRKLAENNELDIDLVDKFIKCMGVYPVGAVVQLDSNRLAIVESHNIADPIRPNVRPFYRLDPKLFEKGLDVDLSSAADEQIVKCVRADDFELDMQQIIEFLAQEA” as the sequence, how does the “soluble on expression in E. coli” value read?
Answer: not soluble

Question: For “MGSDKIHHHHHHMHSHHPISHDVVISGAGPVGLFLACELRLAGLSVLILEKAEDPRSPLKRLPFGMRGLSAPTIEAFHRRDLLDAIAPPTTKDGSGKLVAAHWMQQPRRPGGHFAGIQFHLDAVDSSKWPYRLPGPAGTSMAVEMEQLETMLATRATAMGVEIRRGLGVEIFDQSDEDVTIRAGGEIFRARWLVGCDGGRSTVRKLGGFAFTGTDAEFTGYSVEVEIADPDALSPGRHYTPTGMYTYSRPGTIAMVEFDGATFHRTEPITLEHVQAVLRRVSGTDVTLTALRLATTWTDRAYQASAYRNGRVLLAGDAAHIHSPLGGQGLNLGIGDAMNLGWKLAATIRGDAPAGLLDSYFDERHPVGAQILDWSRAQVALMRPSRSSRALEAIIRDLIDTRDGATYFAERVWGVSLRYDVGGSHPLVGRSAPDFELADGTRPGERLRTGQALLLDFAARPALQALASRWSGRIAYVAEDARERLGLSALLVRPDGVVAWAADGEPDLEGAAQAASRWFGEPGQVAAYAKGTV”, which “soluble on expression in E. coli” value is on record?
Answer: not soluble

Question: With “MDALSRLLTLNAPQGSIDKNCPLGGDWQLPHAAGELSVIRWHTVTQGEAQLEMPTGDAMTLTPGKVVILPQNSAHRLRQSGESPTHIVCGSLRLHTTSRYFLTALPEVLCLAPPPHSPASIWINATILLLQQESERHLPGADVLYSQQCATLFTLAVRDWLSQAGTAKSVLNLLLHPRLGRVILHMLETPAHPWTVETLAQRVHMSRASFAQLFRDVSATTPLAVLTTLRLQIAAQTLSREVLPVMVIAESVGYASESSFHKAFVREFGCTPGEYRKRVSALGR” as the sequence, how does the “soluble on expression in E. coli” value read?
Answer: not soluble

Question: With “MPRLLPVDSCDTEEYTLTEPPRNPQEYLRFVQREASLCPDVVVAQIDPKKLKKQSVNVSITGCLAAPEGFSPSFKWQQQQVSRFSEVRQSVNKHRQHWKAQFLDDNVVMPKTEDEDGWKRFCLGENVCLEIQLKEEDGVNPGLDYVKTGFPPFLSIVSKLSQSTVSAVLEYLINWFEERAFVPQLGRWLYALLACLEKPLLPEAHSLIRQLARRCSAVRANLESKDDDRLSALNLMICIVARYFEQNDLADKE” as the sequence, how does the “soluble on expression in E. coli” value read?
Answer: soluble

Question: Which “soluble on expression in E. coli” value does the source give for “MGSDKIHHHHHHMARYSKKMKLLINTPSLKFLGGGVANHYIGLRTFWTENVKYNVVGRRGGKSGSGKYWLPWDIFKFIFRLLTFRPNIILLNPSLGDKALKRDFIYLNICRFFRKKTSVFIHGFNFEYAKNADWKWISTNLNKALCIFVLSQEFKNELIRRGVKSDIHLTSTKVPDYFISGFDLSMRQGKAKNIMYSGRIEKAKGVYETVDTFSILKSQYKDLTLTFVGDGSELPKLKQYVENKKIKDVRFTGRLCGEDFKKEYINADMYLFLSYTEGMPTVVLEAMIFGLPIFTRKVGGLIDFFENGKMGYISSSLDPVVFAEAMKPYIESSAKMKSVSLYNSEYARTHFIASVVARKFENTLNYEYFKNQEHREH” here?
Answer: not soluble

Question: Which “soluble on expression in E. coli” value does the source give for “GPGSMALRDIVGKQMLRQTVLQPRLKLPAGRVVSIEEGWRLARLVREGEEHASAVAVEAAEGMVAPSSVVLEDDVSKRILLLRHKKRKEGDTKAAVRYAQRSRAVPVVGKVAPEVRDIALNVLRKNPIGRAELRARHERSKAKRATKGSDSTRAKRAGRL” here?
Answer: not soluble

Question: Which “soluble on expression in E. coli” value does the source give for “MKILLIGASGTLGSAVKERLEKKAEVITAGRHSGDVTVDITNIDSIKKMYEQVGKVDAIVSATGSATFSPLTELTPEKNAVTISSKLGGQINLVLLGIDSLNDKGSFTLTTGIMMEDPIVQGASAAMANGAVTAFAKSAAIEMPRGIRINTVSPNVLEESW” here?
Answer: not soluble

Question: Which “soluble on expression in E. coli” value does the source give for “LDPEEIRKRLEHTERQFRNRRKILIRGLPGDVTNQEVHDLLSDYELKYCFVDKYKGTAFVTLLNGEQAEAAINAFHQSRLRERELSVQLQPTDALLCVANLPPSLTQQQFEELVRPFGSLERCFLVYSERTGQSKGYGFAEYMKKDSAARAKSDLLGKPLGPRTLYVHWTDAGQLTPALLHSRCLCVDRLPPGFNDVDALCRALSAVHSPTFCQLACGQDGQLKGFAVLEYETAEMAEEAQQQADGLSLGGSHLRVSFCAPGPPGRSMLAALIAAQATALNRG” here?
Answer: soluble

Question: Which “soluble on expression in E. coli” value does the source give for “MATQQPALVLDPTGADHHTEHRTLREGGPATWVDVLGVQAWSVSDPVLLKQLLTSSDVSKDARAHWPAFGEVVGTWPLALWVAVENMFTAYGPNHRKLRRLVAPAFSARRVDAMRPAVEAMVTGLVDRLAELPAGEPVDLRQELAYPLPIAVIGHLMGVPQDRRDGFRALVDGVFDTTLDQAEAQANTARLYEVLDQLIAAKRATPGDDMTSLLIAARDDEGDGDRLSPEELRDTLLLMISAGYETTVNVIDQAVHTLLTRPDQLALVRKGEVTWADVVEETLRHEPAVKHLPLRYAVTDIALPDGRTIARGEPILASYAAANRHPDWHEDADTFDATRTVKEHLAFGHGVHFCLGAPLARMEVTLALESLFGRFPDLRLADPAEELPPVPSLISNGHQRLPVLLHAG” here?
Answer: soluble

Question: Which “soluble on expression in E. coli” value does the source give for “MENFQPHKQCGYGVIMRLTSKGRYAVTAMLDVALHSQQNPVPLADISERQGISLSYLEQLFSKLRKAGLVASVRGPGGGYRLGMDSYAISIGTVIAAVDESVDATKCNGKGDCQGGTRCLTHTLWRDLSSRITDFLNNITLGELMMDNEVLEVSDRQDLHLAVSQRVSQNNSNTVTIGAAPFGINVRS” here?
Answer: not soluble

Question: With “MEGISNFKTPSKLSEKKKSVLCSTPTINIPASPFMQKLGFGTGVNVYLMKRSPRGLSHSPWAVKKINPICNDHYRSVYQKRLMDEAKILKSLHHPNIVGYRAFTEANDGSLCLAMEYGGEKSLNDLIEERYKASQDPFPAAIILKVALNMARGLKYLHQEKKLLHGDIKSSNVVIKGDFETIKICDVGVSLPLDENMTVTDPEACYIGTEPWKPKEAVEENGVITDKADIFAFGLTLWEMMTLSIPHINLSNDDDDEDKTFDESDFDDEAYYAALGTRPPINMEELDESYQKVIELFSVCTNEDPKDRPSAAHIVEALETDV” as the sequence, how does the “soluble on expression in E. coli” value read?
Answer: soluble

Question: With “MGSDKIHHHHHHMKVLVFDVSAPYALFRRPYTTTSSYTLPFPPRTTLLGLVGCVLGYSTPERLDSAKVAVQIKNPLKFLRTGTNFVETKKDKKASKRTRISLQLLKNPAYRVFFSWEDEDFERLKNLLEHSETIFTPYLGVASFIARLNYVGKYEATRVADFPCEVHTVVPNTVKLLPEPSHYLIFERVTRKMDKERNMLESAVYIFKRDLSPVKVEGGEVWRVGEQNIVWM” as the sequence, how does the “soluble on expression in E. coli” value read?
Answer: not soluble

Question: Which “soluble on expression in E. coli” value does the source give for “CLAEGTRIFDPVTGTTHRIEDVVDGRKPIHVVAAAKDGTLHARPVVSWFDQGTRDVIGLRIAGGAILWATPDHKVLTEYGWRAAGELRKGDRVAQPRRFDGFGDSAPIPARVQALADALDDKFLHDMLAEELRYSVIREVLPTRRARTFDLEVEELHTLVAEGVVVHN” here?
Answer: soluble

Question: Which “soluble on expression in E. coli” value does the source give for “MAAELVQLNPGQQVERWSIEKKLGEGGFGAVYRVFDATGKYAMKVEGANEQIQVLKLEVSVLNKLSKRGNRHFCKIEDKGRFGNFNYVVMTLVGKSLQDLNKAGVGGHMSMGCSIGIGIQSLEALEDLHNIGYLHRDVKPGNYTIGRPELNEIRKVYILDFGMCRKFTGNDGTIRKPRQAAGFRGTVKYAPISCHLQRELCRKDDLETWMYMQVELSHGTIPWQYISDMNQVGQAKQAIRNNLGSLFPPPCPHQFQDIMRMVDAMKYYDAPNYQAIYGMMRQAYGACGSNENAPYDWENGGPAAYLLH” here?
Answer: not soluble
